Measurements published in patent US20230174616A1 (UNIVERSITY OF SOUTHERN CALIFORNIA, published 2023).
Primed or numbered codes have the meaning given here. Where no end group is shown, it is not given here. Side-chain parts run from the residue outwards. [ ]: non-standard residue; d: D form. triazole = 1,2,3-triazole formed by click reaction of the propargylglycine alkyne with ROX-azide; Pra′ = its azide, alkyne or alkene has reacted where a group follows in round brackets; ROX = carboxy-X-rhodamine, joined by click triazole

Key:
[1] = molecular target: T1, hPD-L1* (recombinant glycosylated human PD-L1 ectodomain, A18-T239, expressed in Expi293F cells) (human, UniProt Q9NZQ7 18-239, N-glycosylated; Avi tag biotinylated in vitro with BirA); test: fluorescence polarization, 100 nM ROX-SPAM with 2.4 nM-5 uM glycosylated hPD-L1*, 22 C (67 +/- 21 nM in paragraph 94); glycosylated hPD-L1*
T1 construct: also called glycosylated hPD-L1
Description: (§1) The resulting values were plotted against the concentration of hPD-L1 or hPD-L1* and fit to a one-site saturation binding model with GraphPad Prism.
(§2) The fluorescence polarization of each sample was measured on a Synergy H4 Hybrid Multi-Mode Microplate Reader. Each measurement was carried out in triplicate and the mean value was calculated. The values were fit to a one-site saturation binding model in GraphPad Prism to obtain the corresponding equilibrium dissociation constants.

[2] = molecular target: T2, biotinylated hPD-L1 (extracellular domain of human PD-L1, Ala18 to Thr239, expressed in E. coli, … (human, biotin on the epsilon-amino group of the Avi tag lysine (BirA))); test: fluorescence polarization, 100 nM ROX-SPAM with 2.4 nM-5 uM non-glycosylated hPD-L1, 21 C (119 +/- 33 nM in paragraph 94); non-glycosylated, E. coli-expressed hPD-L1
T2 construct: also called recombinant hPD-L1; non-glycosylated hPD-L1
Description: as §1, §2

[3] = molecular target: T2, biotinylated hPD-L1 (extracellular …); test: fluorescence anisotropy, 100 nM ROX-SPAM titrated with hPD-L1
Description: (§3) Each measurement was carried out in triplicate and the mean value was reported along with the standard deviation. […] The mean of the normalized binding for each incubation time is shown along with the standard deviation of the mean. Each measurement was carried out in triplicate and error bars show the standard deviation of the mean (Students t-test; p value <0.05 (*), <0.01 (**), <0.005 (***), <0.001 (****)).
as §1

[4] = molecular target: T1, hPD-L1* (recombinant glycosylated human …); test: fluorescence anisotropy, 100 nM ROX-SPAM titrated with hPD-L1*
Description: as §3, §1

B1: ROX-SPAM (carboxy-X-rhodamine labeled SPAM peptide) (peptide)
peptide: MPIFLDHILNKFWILHYASG[Pra′]([triazole-ROX])-NH2
modifications: also: ROX attached to Pra by click triazole
notes: Synthetic peptide used in fluorescence polarization; also called ROX-labeled SPAM
With B1 the Kd [1] was 67 nM, the Kd [2] was 119 nM and the “EC50 (read off the curve)” value [3] was ~100 nM. The “EC50 (read off the curve)” value [4] was ~70 nM.
